Biological target: LegK4^1–445 (Legionella pneumophila LegK4, residues 1 to 445) (Legionella pneumophila)
Test: SEC-SAXS

In the case of “LegK4^1–445 (Legionella pneumophila LegK4, residues 1 to 445) (domain or fragment)”, the stoichiometry N is reported as 2.
